This note sets out measurements from publication doi:10.1101/2022.07.09.499445 (bioRxiv, 2022).

Assay [1] concerns the target ICab A4, displayed on the yeast cell surface (camel). Description: flow cytometry on cells. (In general: Flow cytometry measures light scatter and fluorescence of single cells or particles in a stream.)
Assay [2] has as its target ICab B7, displayed on the yeast cell surface (camel). Description: flow cytometry on cells.
Assay [3] has as its target five unique clones. Nature of the assay: flow cytometry on cells.
Assay [4] addresses QacA WT (tagged with GFP) (Staphylococcus aureus, UniProt P0A0J9). Description: immunostaining of cells or tissue.

B1: QacA_(D411N)GFP (natural protein)
chain: MISFFTKTTDMMTSKKRWTALVVLAVSLFVVTMDMTILIMALPELVRELEPSGTQQLWIVDIYSLVLAGFIIPLSAFADKWGRKKALLTGFALFGLVSLAIFFAESAEFVIAIRFLLGIAGALIMPTTLSMIRVIFENPKERATALAVWSIASSIGAVFGPIIGGALLEQFSWHSAFLINVPFAIIAVVAGLFLLPESKLSKEKSHSWDIPSTILSIAGMIGLVWSIKEFSKEGLADIIPWVVIVLAITMIVIFVKRNLSSSDPMLDVRLFKKRSFSAGTIAAFMTMFAMASVLLLASQWLQVVEELSPFKAGLYLLPMAIGDMVFAPIAPGLAARFGPKIVLPSGIGIAAIGMFIMYFFGHPLSYSTMALALILVGAGMASLAVASALIMLETPTSKAGNAAAVEESMYNLGNVFGVAVLGSLSSMLYRVFLDISSFSSKGIVGDLAHVAEESVVGAVEVAKATGIKQLANEAVTSFNDAFVATALVGGIIMIIISIVVYLLIPKSLDITKQK
As usually defined, the Kd is a measure of binding affinity in units of concentration. A higher Kd goes with a looser complex. Regarding B1, the Kd in assay [1] worked out at 65 nM; in assay [2], 100 nM. Besides, the population shift in assay [3] lay within 65 to 97%.

B2: ICab B7, purified (VHH)
VHH: QVQLQESGGGSVQAGGSLRLSCAASGYTNSRKCMGWFRQIPGKEREGVAAIYGFGRGLILYADSVKGRFTISQDNAKNTVYLQMNSLKPEDTAMYYCAADSPGSCLSRSGYNYWGQGTQVTVSS
Take B2: in assay [4], the binding result is listed as “binds”.

B3: ICab A4, purified (VHH)
VHH: QVQLQESGGGSVQTGGSLRLSCAASGYRYSDNCVGWFRQAPGREREAVATYNSGSSTWYADSVKGRFTISQDSAKSTVYLQMNNLKPEDTAMYYCAGRNRLGSYCYMTGDFAYWGQGTQVTVSS
Regarding B3, the binding result in assay [4] was “binds”.
